Measurements reported in IntAct's records for PubMed 24097060.

B1: Chromosome partition protein MukB (Escherichia coli (strain K12)), P22523 (parent)
chain: MIERGKFRSLTLINWNGFFARTFDLDELVTTLSGGNGAGKSTTMAAFVTALIPDLTLLHFRNTTEAGATSGSRDKGLHGKLKAGVCYSMLDTINSRHQRVVVGVRLQQVAGRDRKVDIKPFAIQGLPMSVQPTQLVTETLNERQARVLPLNELKDKLEAMEGVQFKQFNSITDYHSLMFDLGIIARRLRSASDRSKFYRLIEASLYGGISSAITRSLRDYLLPENSGVRKAFQDMEAALRENRMTLEAIRVTQSDRDLFKHLISEATNYVAADYMRHANERRVHLDKALEFRRELHTSRQQLAAEQYKHVDMARELAEHNGAEGDLEADYQAASDHLNLVQTALRQQEKIERYEADLDELQIRLEEQNEVVAEAIERQQENEARAEAAELEVDELKSQLADYQQALDVQQTRAIQYNQAIAALNRAKELCHLPDLTADCAAEWLETFQAKELEATEKMLSLEQKMSMAQTAHSQFEQAYQLVVAINGPLARNEAWDVARELLREGVDQRHLAEQVQPLRMRLSELEQRLREQQEAERLLADFCKRQGKNFDIDELEALHQELEARIASLSDSVSNAREERMALRQEQEQLQSRIQSLMQRAPVWLAAQNSLNQLSEQCGEEFTSSQDVTEYLQQLLEREREAIVERDEVGARKNAVDEEIERLSQPGGSEDQRLNALAERFGGVLLSEIYDDVSLEDAPYFSALYGPSRHAIVVPDLSQVTEHLEGLTDCPEDLYLIEGDPQSFDDSVFSVDELEKAVVVKIADRQWRYSRFPEVPLFGRAARESRIESLHAEREVLSERFATLSFDVQKTQRLHQAFSRFIGSHLAVAFESDPEAEIRQLNSRRVELERALSNHENDNQQQRIQFEQAKEGVTALNRILPRLNLLADDSLADRVDEIRERLDEAQEAARFVQQFGNQLAKLEPIVSVLQSDPEQFEQLKEDYAYSQQMQRDARQQAFALTEVVQRRAHFSYSDSAEMLSGNSDLNEKLRERLEQAEAERTRAREALRGHAAQLSQYNQVLASLKSSYDTKKELLNDLQRELQDIGVRADSGAEERARIRRDELHAQLSNNRSRRNQLEKALTFCEAEMDNLTRKLRKLERDYFEMREQVVTAKAGWCAVMRMVKDNGVERRLHRRELAYLSADDLRSMSDKALGALRLAVADNEHLRDVLRMSEDPKRPERKIQFFVAVYQHLRERIRQDIIRTDDPVEAIEQMEIELSRLTEELTSREQKLAISSRSVANIIRKTIQREQNRIRMLNQGLQNVSFGQVNSVRLNVNVRETHAMLLDVLSEQHEQHQDLFNSNRLTFSEALAKLYQRLNPQIDMGQRTPQTIGEELLDYRNYLEMEVEVNRGSDGWLRAESGALSTGEAIGTGMSILVMVVQSWEDESRRLRGKDISPCRLLFLDEAARLDARSIATLFELCERLQMQLIIAAPENISPEKGTTYKLVRKVFQNTEHVHVVGLRGFAPQLPETLPGTDEAPSQAS
partner: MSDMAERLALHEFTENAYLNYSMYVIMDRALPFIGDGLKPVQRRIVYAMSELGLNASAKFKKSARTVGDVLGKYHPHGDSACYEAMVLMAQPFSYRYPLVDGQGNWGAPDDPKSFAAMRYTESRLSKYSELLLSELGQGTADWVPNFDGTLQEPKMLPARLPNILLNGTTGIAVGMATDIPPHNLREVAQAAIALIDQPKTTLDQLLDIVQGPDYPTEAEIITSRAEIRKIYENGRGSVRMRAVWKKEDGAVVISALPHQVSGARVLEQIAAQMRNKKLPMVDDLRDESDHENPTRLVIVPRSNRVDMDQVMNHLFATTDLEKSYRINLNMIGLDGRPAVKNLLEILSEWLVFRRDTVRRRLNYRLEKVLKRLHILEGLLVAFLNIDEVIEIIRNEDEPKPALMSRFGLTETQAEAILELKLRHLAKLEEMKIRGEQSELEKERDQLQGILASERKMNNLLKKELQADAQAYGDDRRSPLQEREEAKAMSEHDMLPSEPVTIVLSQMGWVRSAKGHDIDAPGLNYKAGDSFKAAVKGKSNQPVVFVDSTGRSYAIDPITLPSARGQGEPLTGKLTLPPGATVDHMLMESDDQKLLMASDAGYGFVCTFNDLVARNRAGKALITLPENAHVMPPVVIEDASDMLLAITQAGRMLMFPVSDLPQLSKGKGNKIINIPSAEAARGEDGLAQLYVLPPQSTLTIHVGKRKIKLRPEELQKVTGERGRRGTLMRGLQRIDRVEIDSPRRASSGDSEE
B2: DNA topoisomerase 4 subunit A (Escherichia coli (strain K12)), P0AFI2 (parent)
chain: B1 partner
partner: B1 chain

Variants of: B1
Settings: with parc_ecoli parC

Variant | effect of a mutation on the interaction
D692F;D746R;E753R | disrupting interaction

Variants of: B1
Settings: with parc_ecoli parC
Remark: another data set of the same source

Variant | effect of a mutation on the interaction
D692F | decreasing interaction

Variants of: B2
Settings: with mukb_ecoli mukB

Variant | effect of a mutation on the interaction
R705D;R729D | disrupting interaction
